Test [1] concerns the target T1, SD1-human Fc fusion protein (human, UniProt P01857 104-330 = IgG part).
T1 construct: domain: CH2 and CH3 in the constant region of human IgG heavy chain gamma 1; also called SD1-hFc
In words: direct ELISA, coated antigen.

Test [2] addresses T1, SD1-human Fc fusion protein. Kind of test: ELISA on coated human mesothelin protein (FIG. 3C).
For test [3] the target is unchanged. In words: ELISA on coated human mesothelin protein, equilibrium constant by Prism / Scatchard.

T1 sequence (P01857 other isoform, or with tags, fused parts or gaps limits assumed): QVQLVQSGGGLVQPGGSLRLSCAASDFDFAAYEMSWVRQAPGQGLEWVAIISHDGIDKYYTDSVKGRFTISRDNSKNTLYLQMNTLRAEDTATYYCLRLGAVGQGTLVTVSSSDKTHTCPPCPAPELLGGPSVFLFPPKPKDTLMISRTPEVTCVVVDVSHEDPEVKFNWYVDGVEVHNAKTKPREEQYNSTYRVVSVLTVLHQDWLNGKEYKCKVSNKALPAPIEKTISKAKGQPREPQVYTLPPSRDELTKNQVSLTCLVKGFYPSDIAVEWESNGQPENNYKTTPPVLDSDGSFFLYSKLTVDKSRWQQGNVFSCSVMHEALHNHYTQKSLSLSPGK

B1: full-length mouse mesothelin protein (other)
chain: DAEQKACPPGKEPYKVDEDLIFYQNWELEACVDGTMLARQMDLVNEIPFTYEQLSIFKHKLDKTYPQGYPESLIQQLGHFFRYVSPEDIHQWNVTSPDTVKTLLKVSKGQKMNAQAIALVACYLRGGGQLDEDMVKALGDIPLSYLCDFSPQDLHSVPSSVMWLVGPQDLDKCSQRHLGLLYQKACSAFQNVSGLEYFEKIKTFLGGASVKDLRALSQHNVSMDIATFKRLQVDSLVGLSVAEVQKLLGPNIVDLKTEEDKSPVRDWLFRQHQKDLDRLGLGLQGGIPNGYLVLDFNVREAFS
notes: also called mMSLN; murine mesothelin
As for B1, the binding result in test [1] was “no binding”.

B2: full-length human mesothelin protein (other)
chain: EVEKTACPSGKKAPEIDESLIFYKKWELEACVDAALLATQMDRVNAIPFTYEQLDVLKHKLDELYPQGYPESVIQHLGYLFLKMSPEDIRKWNVTSLETLKALLEVNKGHEMSPQVATLIDRFVKGRGQLDKDTLDTLTAFYPGYLCSLSPEELSSVPPSSIWAVRPQDLDTCDPRQLDVLYPKARLAFQNMNGSEYFVKIQSFLGGAPTEDLKALSQQNVSMDLATFMKLRTDAVLPLTVAEVQKLLGPHVEGLKAEERHRPVRDWILRQRQDDLDTLGLGLQGGIPNGYLVLDLSMQEALS
notes: also called MSLN; full-length mesothelin
With B2, the Kd in test [2] and in test [3] was 13.6 nM throughout.

Values taken from US20150274836A1 (US Dept. of Health and Human Services, published 2015).
